From patent US7939064B2 (priority 2006, dated 2011)
“Also recorded” adds a separate entry of the source.

Tests used:
[1] = tested on: transient cerebral focal ischemia (left middle cerebral artery occlusion); conditions: rat, in vivo
[2] = tested on: neurons in striatum and cortex of ischemic brains; experiment: Haematoxylin and eosin histology of ischemic brain sections; type: in vivo, rat; conditions: NsPLA2 at 0 min post-occlusion
From the text: The ability of NsPLA2 to protect neurons from cell death was investigated. Paraffin-embedded rat brains were sectioned and stained with haematoxylin and eosin. […] Neurons appeared shrunken and nuclei were dysmorphic and pyknotic.

[3] = tested on: neurons in striatum and cortex of ischemic brains; conditions: rat, in vivo
[4] = tested on: gene expression in ischemic brain; experiment: Microarray gene expression analysis (RAE-230A GeneChips) of MCAo and MCAo+NsPLA2 brains; type: in vivo, rat
From the text: Cerebral ischemia is a powerful stimulus for the de novo expression of many gene systems and identification of genes differentially expressed in the ischemic and non-ischemic brain can help illuminate pathophysiology and provide therapeutic targets in ischemia. Analysis of gene expression can also aid in elucidating the role of various pathways or specific genes in the mechanism of action of neuroprotective agents. Consequently, the power of high-density oligonucleotide arrays was harnessed to generate global expression profiles of non-ischemic, ischemic and NsPLA2-treated brains. RNA isolated from the brains of sham-operated rats (sham-op; n=4), rats subjected to 60 min of MCAo (MCAo; n=4) and rats subjected to 60 min of MCAo but treated with 30 μg/200 g body weight NsPLA2 immediately post-occlusion (MCAo+NsPLA2; n=4) was pooled before microarray probe preparation and hybridization to minimize inter-individual variation. Expression analysis was carried out using GeneChips from the RAE-230A Array set, with each chip representing ˜15,900 genes and expressed sequence tags (ESTs). Genes whose expression changed by 1.7-fold or greater in at least one pairwise comparison (between sham-op and MCAo or between MCAo and MCAo+NsPLA2) were deemed significant.
In an attempt to understand the mechanisms by which NsPLA2 may confer neuroprotection, the gene expression profiles of MCAo and MCAo+NsPLA2 were compared. […] They are listed in Table 1 and include genes involved in cell growth and maintenance (retinol-binding protein, regulator of G-protein signalling 2, DNA topoisomerase, X transporter protein 3, hemoglobin &chain complex, nucleosome assembly protein 1-like, cyclin-dependent kinase inhibitor 1A and chloride intracellular channel 4), development (tropomyosin 4 and neurogenic differentiation 1), lipid metabolism (tissue inhibitor of metalloproteinase 1 and sulfotransferase family 1A), Ca^2+-binding (calpactin 1 heavy chain, calgranulin A, protein disulfide isomeraserelated protein and S-100 related protein), maintenance of cytoskeletal structure (tropomyosin 1 and moesin), defense response (CD44 antigen), regulation of blood pressure (angiotensinogen), cell-cell signaling (thyrotropin releasing hormone), antioxidant activity (glutathione-S-transferase), proteolysis (MMP-9), cell adhesion (l-gicerin) and transcriptional regulation (POU domain).

[5] = tested on: gene expression in ischemic brain; experiment: Real-time PCR quantitation of nine genes in MCAo and NsPLA2-treated brains; type: in vivo, rat; conditions: NsPLA2 treatment relative to MCAo brain
From the text: The expression of nine genes that may have important roles in mediating the neuroprotective action of NsPLA2 was quantitated by real-time PCR (FIG. 8). Specific primers were used for PCR amplification. The relative expression of each gene in the heart was obtained after normalizing against an internal control (18S ribosomal RNA) and a calibrator, in this case, the sham-operated control or MCAo brain, FIGS. 8A and B respectively, relative gene expression=1).

TNF-a = conditions: rat, in vivo
[6] = LD50 and signs of toxicity of NsPLA2
[7] = tested on: Bcl-2, Bcl-XL and Bax genes; experiment: Real-time PCR of anti-/pro-apoptotic genes in OGD hippocampal tissues; conditions: OGD and NsPLA2 treatment
Protocol: (A) Organotypic hippocampal cultures were subjected to OGD (oxygen-glucose deprivation) for 90 mins and treated with NsPLA2. […] Total RNA was isolated from the hippocampal tissues and subjected to reverse transcription and PCR. The data was derived from 6 independent PCR (n=6).
Thus, we carried out experiments using the organotypic hippocampal cultures, in conditions where oxygen is eliminated by using the 95% N2 and 5% CO2 and glucose was deprived in cultures by using culture media without glucose.

[8] = NsPLA2-treated vs saline-treated MCAo brain

B1: NsPLA2 (protein)
chain: NLYQFKNMVQCTVPNRSWWHFADYGCYCGRGGSGTPVDDLDRCCQIHDNCYNEAEKISRCWPYFKTYSYECSQGTLTCKGGNNACAAAVCDCDRLAAICFAGAPYNDNNYNIDLKARCQ
modifications: Naja sputatrix
[1]
  brain infarction compared to saline-treated control: no effect
  infarct size, TTC staining of serial brain sections: significant reduction in infarct size; also recorded: reduced the infarct size but to a lesser extent
  reduction of focal ischemia / infarct size (summary statement): 80%
[2]
  ischemic damage, cellular morphology (haematoxylin and eosin): significantly reduced ischemic damage
[3]
  degree of apoptosis (TUNEL): greatly reduced
[4]; [8]
  fold change, Adipose differentiation-related protein (1390383_at): −1.75 fold
  fold change, CD9 antigen (1371499_at): −2.6 fold
  fold change, CD44 antigen (1387952_a_at): −3.7 fold
  fold change, Calcium/calmodulin-dependent protein kinase (CaM kinase) II gamma (1369993_at): 1.74 fold
  fold change, Chloride intracellular channel 4 (1387420_at): −1.9 fold
  fold change, DNA topoisomerase I (1369421_at): −4.6 fold
  fold change, I-gicerin (1369793_a_at): −1.75 fold
  fold change, NOV protein (1376734_at): 1.87 fold
  fold change, ProSAPiP1 protein (1373057_at): 1.74 fold
  fold change, S100 calcium-binding protein A8 (calgranulin A) (1368494_at): −1.75 fold
  fold change, S-100 related protein (1386890_at): −1.9 fold
  fold change, Similar to endothelial monocyte-activating polypeptide (1375170_at): −1.9 fold
  fold change, Similar to plexinB1 (1374444_at): 2 fold
  fold change, Similar to tropomodulin 3 (1372500_at): −1.75 fold
  fold change, X transporter protein 3 (1369705_at): −1.75 fold
  fold change, aldose reductase-like protein (1370902_at): −2.6 fold
  fold change, angiotensinogen (1387811_at): 1.87 fold
  fold change, calpactin I heavy chain (1367584_at): −1.75 fold
  fold change, cyclin-dependent kinase inhibitor 1A (1387391_at): −3 fold
  fold change, fibulin 2 (1389533_at): −1.75 fold
  fold change, gap junction protein, beta 6 (connexin 30) (1368577_at): 1.87 fold
  fold change, glutathione S-transferase, alpha 1 (1367774_at): 2 fold
  fold change, hemoglobin beta chain complex (1371102_x_at): −1.75 fold
  fold change, homer, neuronal immediate early gene, 1 (1370997_at): −2.44 fold
  fold change, matrix metalloproteinase 9 (1369166_at): −2 fold
  fold change, microtubule-associated protein, RP/EB family, member 1 (1370792_at): −4.3 fold
  fold change, moesin (1368948_at): −2.3 fold
  fold change, neurogenic differentiation 1 (1387288_at): 1.74 fold
  fold change, nucleosome assembly protein 1-like 1 (1373473_a_at): −2.3 fold
  fold change, ornithine decarboxylase antizyme inhibitor (1370575_a_at): −1.9 fold
  fold change, protein disulfide isomerase related protein (calcium-binding protein) (1370007_at): −2 fold
  fold change, regulator of G-protein signaling protein 2 (1368144_at): −2.44 fold
  fold change, retinol binding protein 1 (1367939_at): −1.75 fold
  fold change, serine (or cysteine) proteinase inhibitor, clade H, member 1 (1371310_s_at): −1.9 fold
  fold change, sulfotransferase family 1A, phenol-preferring, member 1 (1370019_at): 1.87 fold
  fold change, syndecan 1 (1367849_at): −1.9 fold
  fold change, thyrotropin releasing hormone (1368912_at): −3.5 fold
  fold change, tissue inhibitor of metalloproteinase 1 (1367712_at): −2 fold
  fold change, tropomyosin 1, alpha (1370288_a_at): −2.44 fold
  fold change, tropomyosin 4 (1368838_at): −2.1 fold
  fold change, tumor rejection antigen gp96 (1388331_at): −2.1 fold
[4]; NsPLA2-treated vs saline-treated MCAo brain, listed as PLA2
  fold change, glutathione S-transferase, alpha 1 (1367774_at): +2.0 fold
[4]; after PLA2 treatment
  decrease in expression of thyrotropin releasing hormone: 3.5 fold
[5]
  expression of glutathione-S-transferase, CAM kinase II and angiotensinogen (real-time PCR): increased
  expression of thyrotropin releasing hormone, secreted phosphoprotein, moesin, MMP-9, TIMP-1 and calgranulin A (real-time PCR): decreased
TNF-a
  systemic inflammation: did not induce systemic inflammation
[6]; 30 μg/200 g body weight i.v.
  signs of toxicity: did not induce any signs of toxicity
[6]; rat, in vivo
  LD50: 125 μg/200 g body weight
[7]
  Bax gene expression (real-time PCR): down-regulated
  Bcl-2 gene expression (real-time PCR): up-regulated
  Bcl-XL gene expression (real-time PCR): up-regulated

B2: tPA: tissue plasminogen activator, thrombolytic serine protease converting plasminogen to plasmin (protein, UniProt P00750 36-562, looked up)
Tissue-type plasminogen …: SYQVICRDEKTQMIYQQHQSWLRPVLRSNRVEYCWCNSGRAQCHSVPVKSCSEPRCFNGGTCQQALYFSDFVCQCPEGFAGKCCEIDTRATCYEDQGISYRGTWSTAESGAECTNWNSSALAQKPYSGRRPDAIRLGLGNHNYCRNPDRDSKPWCYVFKAGKYSSEFCSTPACSEGNSDCYFGNGSAYRGTHSLTESGASCLPWNSMILIGKVYTAQNPSAQALGLGKHNYCRNPDGDAKPWCHVLKNRRLTWEYCDVPSCSTCGLRQYSQPQFRIKGGLFADIASHPWQAAIFAKHRRSPGERFLCGGILISSCWILSAAHCFQERFPPHHLTVILGRTYRVVPGEEEQKFEVEKYIVHKEFDDDTYDNDIALLQLKSDSSRCAQESSVVRTVCLPPADLQLPDWTECELSGYGKHEALSPFYSERLKEAHVRLYPSSRCTSQHLLNRTVTDNMLCAGDTRSGGPQANLHDACQGDSGGPLVCLNDGRMTLVGIISWGLGCGQKDVPGVYTKVTNYLDWIRDNMRP
[1]
  effect on infarct volume after transient ischemia: did not significantly reduce infarct volume
  neuroprotection compared with the phospholipase A2: less neuroprotective
